Test [1] addresses T1, human (hu) Robo 4 extracellular domain (ECD)-precision site (PreS)-Avi-tag (Avi)-6x histidine (His) (human).
T1 construct: it holds the ECD with PreScission site, Avi-tag and His-tag; also called recombinant human Robo 4; human Robo 4
T1 chain: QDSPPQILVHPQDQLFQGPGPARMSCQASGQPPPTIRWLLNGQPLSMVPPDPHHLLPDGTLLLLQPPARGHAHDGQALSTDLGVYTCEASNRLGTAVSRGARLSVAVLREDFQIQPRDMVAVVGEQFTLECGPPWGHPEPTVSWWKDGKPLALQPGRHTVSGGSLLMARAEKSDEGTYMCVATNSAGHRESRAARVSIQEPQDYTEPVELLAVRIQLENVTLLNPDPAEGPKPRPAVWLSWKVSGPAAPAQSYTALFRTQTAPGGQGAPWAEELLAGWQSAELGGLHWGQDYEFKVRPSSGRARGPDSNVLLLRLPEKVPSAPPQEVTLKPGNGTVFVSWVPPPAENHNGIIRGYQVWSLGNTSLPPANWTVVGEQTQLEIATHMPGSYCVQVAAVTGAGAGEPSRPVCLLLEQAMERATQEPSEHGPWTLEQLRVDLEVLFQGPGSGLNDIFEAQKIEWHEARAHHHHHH
Put plainly: SPR Biacore T100, IgG captured via anti-human Fab, antigen as analyte (affinity). As for the experimental part: (§1) All surface plasmon resonance (SPR) experiments are performed on a Biacore T100 at 25° C. with HBS-EP as running buffer (0.01 M HEPES pH 7.4, 0.15 M NaCl, 3 mM EDTA, 0.005% Surfactant P20 (Biacore)).
(§2) Anti Robo 4 antibodies were captured for 60 s at 50 nM. Recombinant human, murine and cynomolgus Robo 4 were passed at a concentration range from 0.46-1000 nM with a flow of 30 μl/min through the flow cells over 90 s. The dissociation was monitored for 120 s. Bulk refractive index differences were corrected for by subtracting the response obtained on a reference flow cell. Here, the antigens were flown over a surface with immobilized anti-human Fab specific antibody on which HBS-EP has been injected rather than the antibodies.
(§3) Kinetic constants were derived using the Biacore T100 Evaluation Software (vAA, Biacore), to fit rate equations for 1:1 Langmuir binding by numerical integration.

The target of test [2] is T2, recombinant cynomolgus Robo 4 ECD fused to AcTEV protease recognition site, Avi- and 6xHis-tag (cynomolgus).
T2 construct: Biotinylated in the avidity assay
T2 chain: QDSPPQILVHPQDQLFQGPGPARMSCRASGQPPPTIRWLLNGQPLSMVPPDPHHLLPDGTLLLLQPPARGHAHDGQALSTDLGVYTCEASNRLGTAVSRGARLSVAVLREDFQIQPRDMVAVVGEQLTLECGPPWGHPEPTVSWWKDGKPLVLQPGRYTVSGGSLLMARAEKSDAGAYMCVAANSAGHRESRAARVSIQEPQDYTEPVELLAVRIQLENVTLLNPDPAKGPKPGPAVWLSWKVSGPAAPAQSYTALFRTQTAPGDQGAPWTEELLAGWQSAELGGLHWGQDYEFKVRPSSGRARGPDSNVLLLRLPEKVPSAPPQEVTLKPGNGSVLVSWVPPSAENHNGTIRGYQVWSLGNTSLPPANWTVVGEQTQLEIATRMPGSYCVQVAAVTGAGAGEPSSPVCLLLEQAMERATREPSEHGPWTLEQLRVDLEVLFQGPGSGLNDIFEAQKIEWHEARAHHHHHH
The description is as above. Here is the method: as §1, §2, §3

For test [3], the target named is T1, human (hu) Robo 4 extracellular domain …. Put plainly: SPR Biacore T100, biotinylated antigen on streptavidin chip, IgG as analyte (avidity). As for the experimental part:
as §1
(§4) Determination of avidity was done by direct immobilization of biotinylated recombinant human, murine and cynomolgus Robo 4 on a Streptavidin sensor chip. Immobilization level ranged from 300 to 1000 RU. Anti-Robo 4 antibodies were passed through the flow cells for 220 s at 30 μl/min in a concentration range from 0.78-50 nM. Dissociation was monitored for 220 s. For the blank and the 25 nM injection dissociation was monitored for 600 s.
as §3

Test [4] has as its target T2, recombinant cynomolgus Robo 4 ECD fused …. Described as above. Here is the method: as §1, §4, §3
For test [5], the target named is T3, human Robo 4 FN-like domain 1-Fc (human, UniProt P0DOX5 222-449 = IgG part).
T3 construct: also called fibronectin-like domain 1
Put plainly: SPR, IgG captured via anti-human Fab, domain-Fc as analyte. As for the experimental part:
as §1
For determination of the epitope of the four analyzed anti-Robo 4 antibodies, domain variants of human Robo 4 (FN-like domain 1, FN-like domain 2, Ig-like domain 1 and Ig-like domain 2) were used. Anti-Robo 4 antibodies were captured for 60 s at 50 nM on a sensorchip surface with immobilized anti-human Fab specific antibody (GE Healthcare). Domain variants of human Robo 4 were passed at a concentration range of 0.46-1000 nM with a flow of 30 μl/min through the flow cells over 90 s. The dissociation was monitored for 120 s. Bulk refractive index differences were corrected for by subtracting the response obtained on reference flow cell as described above.

Test [6] has as its target T4, murine (mu) Robo 4 ECD-PreS-Avi-His (mouse).
T4 construct: also called recombinant murine Robo 4; murine Robo 4
T4 chain: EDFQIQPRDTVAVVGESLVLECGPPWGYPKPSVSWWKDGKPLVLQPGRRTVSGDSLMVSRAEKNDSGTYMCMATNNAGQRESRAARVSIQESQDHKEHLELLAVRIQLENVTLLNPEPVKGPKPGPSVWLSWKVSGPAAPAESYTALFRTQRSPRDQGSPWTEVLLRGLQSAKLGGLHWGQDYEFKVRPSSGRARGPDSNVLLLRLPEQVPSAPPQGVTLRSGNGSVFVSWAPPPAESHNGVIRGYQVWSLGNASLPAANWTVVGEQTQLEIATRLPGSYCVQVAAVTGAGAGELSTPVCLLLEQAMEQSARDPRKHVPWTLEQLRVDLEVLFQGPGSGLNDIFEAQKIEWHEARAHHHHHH
Put plainly: SPR Biacore T100, IgG captured via anti-human Fab, antigen as analyte (affinity). Here is the method: as §1, §2, §3

Test [7] deals with T4, murine (mu) Robo 4 ECD-PreS-Avi-His. Put plainly: SPR Biacore T100, biotinylated antigen on streptavidin chip, IgG as analyte (avidity). Here is the method:
as §1, §4, §3

B1: 7G2 anti-Robo 4 IgG (antibody, V domains shown)
VH: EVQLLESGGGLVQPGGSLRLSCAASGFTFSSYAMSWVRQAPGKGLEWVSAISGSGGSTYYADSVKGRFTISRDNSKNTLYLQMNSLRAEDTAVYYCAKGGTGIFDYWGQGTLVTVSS
VL: EIVLTQSPGTLSLSPGERATLSCRASQSVSSSYLAWYQQKPGQAPRLLIYGASSRATGIPDRFSGSGSGTDFTLTISRLEPEDFAVYYCQQGQLPPRTFGQGTKVEIK
notes: also called 7G2 IgG
With B1, the Kd in test [1] came out at 23.4 nM; in test [2], 64.1 nM; in test [3] it was 0.421 nM; in test [4] it was 0.94 nM. The koff in test [1] was found to be 0.00102 s⁻¹; in test [2], 0.00116 s⁻¹; in test [3], 0.000152 s⁻¹; in test [4], 0.000291 s⁻¹. Also, the kon stood at 43800 M⁻¹ s⁻¹ in test [1], 18100 M⁻¹ s⁻¹ in test [2], 361000 M⁻¹ s⁻¹ in test [3] and 310000 M⁻¹ s⁻¹ in test [4]. In test [5], the binding result is recorded as “no binding (tested: 0.46-1000 nM)”.

B2: 01F09 anti-Robo 4 IgG (antibody, V domains shown)
VH: QIQLQESGPGLVKPSQSLSLTCSVTGYSISSGSLWTWIRQFPGNNLEWMGYISYAGGIDYNPSLTSRISITRDTSRNQFFLQLESVTTQDTATYYCATPGGYPFHFDYWGQGTMVTVSS
VL: QPVLTQSPSASASLGASVKLTCTLNSQFSTYNIGWYQQHRDKPPKYVMFVKGDGGHSKADGIPDRFSGSSSGADRYLTISNIQAEDEAIYFCGADYNNAGQYGCVFGSGTHFTVLG
notes: also called 01F09 IgG
On to B2, for which the Kd in test [1] stood at 2.63 nM; in test [6], 256 nM; in test [2] it was 474 nM; in test [3] it was 0.018 nM; in test [7], 1.09 nM; in test [4], 0.37 nM. The koff in test [1] amounted to 0.00063 s⁻¹; in test [6], 0.0307 s⁻¹; in test [2], 0.0315 s⁻¹; in test [3] it was 3.78e-05 s⁻¹; in test [7] it was 0.00115 s⁻¹; in test [4] it was 0.000817 s⁻¹. Besides, the kon in test [1] worked out at 241000 M⁻¹ s⁻¹; in test [6] it was 120000 M⁻¹ s⁻¹; in test [2] it was 66600 M⁻¹ s⁻¹; in test [3], 2.1e+06 M⁻¹ s⁻¹; in test [7] it was 1.05e+06 M⁻¹ s⁻¹; in test [4], 2.22e+06 M⁻¹ s⁻¹. In test [5], the binding result was “no binding (tested: 0.46-1000 nM)”.

B3: 01F05 anti-Robo 4 IgG (antibody, V domains shown)
VH: QVQLKQSGAELVKPGASVKISCKTSVYTFTYGYMHWVEQKPGQGLEWIGRIDPDSGNSMYNQKFQGRATLTRDKSSSTVYMELRSLTSEDSAVYYCARSMRYSGYRDYALDLWGQGTQVTVSS
VL: QLVLTQSPSASASLGASVKLTCTLSSQHSSYGITWLQQHPDKAPKYVMYLKSDGSHTKGADIPDRFSGSSSGVHRYLSISNVQPEDEAIYFCVTYDSTHVFGSGTQLTVLG
notes: also called 01F05 IgG
For B3, the Kd in test [1] came out at 15.3 nM; in test [6], 10.1 nM; in test [2], 144 nM; in test [3], 0.093 nM; in test [7], 0.19 nM; in test [4], 0.58 nM. In addition, the dissociation rate constant (koff) is 0.00091 s⁻¹ in test [1]; 0.00031 s⁻¹ in test [6]; 0.00191 s⁻¹ in test [2]; 6.13e-05 s⁻¹ in test [3]; 7.32e-05 s⁻¹ in test [7]; 0.000475 s⁻¹ in test [4]. Moreover, the kon in test [1] turned out to be 59600 M⁻¹ s⁻¹; in test [6], 30800 M⁻¹ s⁻¹; in test [2] it was 13300 M⁻¹ s⁻¹; in test [3], 657000 M⁻¹ s⁻¹; in test [7], 373000 M⁻¹ s⁻¹; in test [4], 822000 M⁻¹ s⁻¹. In addition, the binding result in test [5] is “no binding (tested: 0.46-1000 nM)”.

B4: 01E06 anti-Robo 4 IgG (antibody, V domains shown)
VH: EVQLVESGGGLSQPGNSLKLSCEASGFTFRNYDMSWVRQAPGKGLEWVAYISSGGGPIYYVDAVKGRFTISRDNAKNLLFLQMNNLRSEDTAVYYCARDLADIGVFDYWGQGTMVTVSS
VL: DFKMTQSPDILSPSLGESVTITCQSSQNIYSNLAWYQQKPGEHPKLLIYTASILADGIPSRFTGSGSGTQFSLKISSLQPDDVANYYCQQYVYYRTFGPGTKLEIK
notes: also called 01E06 IgG
Take B4: the Kd in test [1] came out at 0.69 nM; in test [6], 166 nM; in test [2], 0.96 nM; in test [3], 0.0007 nM; in test [7] it was 1.07 nM; in test [4], 0.0001 nM. For the same molecule, the koff in test [1] was 0.00033 s⁻¹; in test [6] it was 0.0128 s⁻¹; in test [2], 8e-05 s⁻¹; in test [3] it was about 1.25e-06 s⁻¹; in test [7], 0.000805 s⁻¹. Moreover, the kon is 479000 M⁻¹ s⁻¹ in test [1]; 77100 M⁻¹ s⁻¹ in test [6]; 80400 M⁻¹ s⁻¹ in test [2]; 1.76e+06 M⁻¹ s⁻¹ in test [3]; 750000 M⁻¹ s⁻¹ in test [7]; 1.13e+06 M⁻¹ s⁻¹ in test [4]. For the same molecule, in test [5], the binding result is reported as “no binding (tested: 0.46-1000 nM)”.

The values above are taken from patent US20180282410A1 (Hoffmann-La Roche, published 2018).
